Reference: the supplement of paper PMC9112550, “Optimization of the antimicrobial peptide Bac7 by deep mutational scanning” (BMC Biology, 2022)

System: Escherichia coli TOP10
Experiment: shrunken log2 fold change of peptide-encoding DNA abundance (4.5 h post-induction vs induction); higher = less antimicrobial activity (less host growth inhibition)
Details: time post-induction: 4.5 h; library: site-saturation at positions 5, 18, 19, 20
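Note: peptides expressed intracellularly from a pBAD plasmid library in pooled LB shake-flask culture, induced with 0.3% L-arabinose, DNA abundance read by NGS, three biological replicates, DESeq2 with apeglm shrinkage.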

Sequence | shrunken log2 fold change
RRIRFRPPRLPRPRPRPKKEPRP | 0.0316
RRIRFRPPRLPRPRPRPKKRPRP | 0.3
RRIRFRPPRLPRPRPRPKLCPRP | -0.14
RRIRFRPPRLPRPRPRPKLFPRP | -0.0554
RRIRFRPPRLPRPRPRPKLPPRP | 0.404
RRIRFRPPRLPRPRPRPKMLPRP | -0.0622
RRIRFRPPRLPRPRPRPKNPPRP | -0.00149
RRIRFRPPRLPRPRPRPKPMPRP | 0.521
RRIRFRPPRLPRPRPRPKPVPRP | 0.727
RRIRFRPPRLPRPRPRPKQVPRP | -0.176
RRIRFRPPRLPRPRPRPKRNPRP | 0.203
RRIRFRPPRLPRPRPRPKRTPRP | 0.0846
RRIRFRPPRLPRPRPRPKSHPRP | -0.506
RRIRFRPPRLPRPRPRPKSMPRP | 0.102
RRIRFRPPRLPRPRPRPKWAPRP | -0.075
RRIRFRPPRLPRPRPRPKYNPRP | -0.978
RRIRFRPPRLPRPRPRPLAMPRP | -0.0206
RRIRFRPPRLPRPRPRPLAWPRP | 0.32
RRIRFRPPRLPRPRPRPLCPPRP | 0.016
RRIRFRPPRLPRPRPRPLCTPRP | -0.137
RRIRFRPPRLPRPRPRPLDDPRP | -0.209
RRIRFRPPRLPRPRPRPLEKPRP | -0.14
RRIRFRPPRLPRPRPRPLEQPRP | 0.0789
RRIRFRPPRLPRPRPRPLGHPRP | -0.0599
RRIRFRPPRLPRPRPRPLHLPRP | -0.166

Sequence | shrunken log2 fold change
RRIRFRPPRLPRPRPRPLHRPRP | 0.136
RRIRFRPPRLPRPRPRPLHYPRP | -0.299
RRIRFRPPRLPRPRPRPLIAPRP | -0.234
RRIRFRPPRLPRPRPRPLIWPRP | -0.13
RRIRFRPPRLPRPRPRPLKHPRP | -0.475
RRIRFRPPRLPRPRPRPLKPPRP | -0.178
RRIRFRPPRLPRPRPRPLKTPRP | -0.112
RRIRFRPPRLPRPRPRPLLVPRP | 0.0528
RRIRFRPPRLPRPRPRPLMTPRP | 0.189
RRIRFRPPRLPRPRPRPLPWPRP | -0.195
RRIRFRPPRLPRPRPRPLQIPRP | -0.384
RRIRFRPPRLPRPRPRPLQKPRP | -0.235
RRIRFRPPRLPRPRPRPLQNPRP | 0.0294
RRIRFRPPRLPRPRPRPLRSPRP | 0.259
RRIRFRPPRLPRPRPRPLSEPRP | -0.22
RRIRFRPPRLPRPRPRPLTKPRP | -0.2
RRIRFRPPRLPRPRPRPLVSPRP | -0.425
RRIRFRPPRLPRPRPRPLYGPRP | -0.303
RRIRFRPPRLPRPRPRPLYHPRP | -0.859
RRIRFRPPRLPRPRPRPLYMPRP | -0.921
RRIRFRPPRLPRPRPRPLYPPRP | -0.205
RRIRFRPPRLPRPRPRPMAHPRP | 0.0587
RRIRFRPPRLPRPRPRPMANPRP | -0.104
RRIRFRPPRLPRPRPRPMDNPRP | 0.000389
RRIRFRPPRLPRPRPRPMEIPRP | -0.298

Sequence | shrunken log2 fold change
RRIRFRPPRLPRPRPRPMFPPRP | -0.368
RRIRFRPPRLPRPRPRPMFWPRP | -0.0645
RRIRFRPPRLPRPRPRPMGKPRP | -0.307
RRIRFRPPRLPRPRPRPMGLPRP | -0.00847
RRIRFRPPRLPRPRPRPMHKPRP | -0.263
RRIRFRPPRLPRPRPRPMIQPRP | -0.0594
RRIRFRPPRLPRPRPRPMISPRP | -0.446
RRIRFRPPRLPRPRPRPMLCPRP | -0.103
RRIRFRPPRLPRPRPRPMNWPRP | -0.143
RRIRFRPPRLPRPRPRPMPDPRP | -0.0671
RRIRFRPPRLPRPRPRPMPLPRP | -0.417
RRIRFRPPRLPRPRPRPMPMPRP | -0.00868
RRIRFRPPRLPRPRPRPMQFPRP | -0.0783
RRIRFRPPRLPRPRPRPMQKPRP | 0.00713
RRIRFRPPRLPRPRPRPMQNPRP | 0.027
RRIRFRPPRLPRPRPRPMQSPRP | -0.208
RRIRFRPPRLPRPRPRPMRHPRP | 0.0162
RRIRFRPPRLPRPRPRPMRNPRP | 0.92
RRIRFRPPRLPRPRPRPMRSPRP | 0.904
RRIRFRPPRLPRPRPRPMSIPRP | -0.354
RRIRFRPPRLPRPRPRPMSLPRP | -0.142
RRIRFRPPRLPRPRPRPMTFPRP | -0.0585
RRIRFRPPRLPRPRPRPMWLPRP | 0.0605
RRIRFRPPRLPRPRPRPMWVPRP | -0.00617
RRIRFRPPRLPRPRPRPMWWPRP | 0.0551
